Molecular target: T1, TLR9 (Mus musculus, UniProt Q9EQU3)
T1 construct: using the murine macrophage cell line RAW264.7; endogenous in cells; host or cells: RAW264.7
T1 sequence (Q9EQU3 26-1032): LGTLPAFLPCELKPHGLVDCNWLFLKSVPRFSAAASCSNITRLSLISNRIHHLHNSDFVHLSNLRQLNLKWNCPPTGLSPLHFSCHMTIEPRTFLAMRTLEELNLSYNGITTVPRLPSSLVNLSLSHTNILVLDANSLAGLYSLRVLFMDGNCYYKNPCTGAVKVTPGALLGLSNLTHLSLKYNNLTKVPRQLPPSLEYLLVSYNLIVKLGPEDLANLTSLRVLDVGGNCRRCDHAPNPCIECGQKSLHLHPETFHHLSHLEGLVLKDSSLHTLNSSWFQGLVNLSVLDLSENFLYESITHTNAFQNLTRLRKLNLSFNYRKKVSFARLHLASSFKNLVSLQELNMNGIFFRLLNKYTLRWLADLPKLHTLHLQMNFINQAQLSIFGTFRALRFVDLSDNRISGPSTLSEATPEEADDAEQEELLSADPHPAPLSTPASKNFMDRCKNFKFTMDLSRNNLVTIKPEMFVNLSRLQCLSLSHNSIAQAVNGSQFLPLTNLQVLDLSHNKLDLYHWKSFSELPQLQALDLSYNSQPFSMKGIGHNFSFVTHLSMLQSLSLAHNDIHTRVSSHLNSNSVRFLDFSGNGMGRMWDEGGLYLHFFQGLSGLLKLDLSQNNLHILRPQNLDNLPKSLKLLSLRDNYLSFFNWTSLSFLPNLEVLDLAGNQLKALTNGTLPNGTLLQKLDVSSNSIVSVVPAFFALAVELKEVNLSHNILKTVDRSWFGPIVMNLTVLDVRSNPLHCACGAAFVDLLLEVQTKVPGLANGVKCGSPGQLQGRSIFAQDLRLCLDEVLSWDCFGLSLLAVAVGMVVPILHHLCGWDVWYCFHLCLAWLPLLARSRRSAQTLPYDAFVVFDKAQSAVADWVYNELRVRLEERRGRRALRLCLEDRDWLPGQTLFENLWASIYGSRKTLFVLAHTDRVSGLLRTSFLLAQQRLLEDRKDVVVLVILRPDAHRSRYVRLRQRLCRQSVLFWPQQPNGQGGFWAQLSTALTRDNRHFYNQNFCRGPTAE
Assay: CpG-induced MIP-2 production in RAW264.7 cells, ELISA
Assay type: cell-based, murine
Details: peptide 5 or 20 μM 1 h before 1 μg/ml CpG, supernatant 24 h
Method: FIGS. 1A and B are bar charts showing the effect of peptides derived from A46 on CpG-induced MIP-2 production murine RAW264.7 cells. Cells were seeded in 96 well plates (1.5×10^5 cells/nil) at least 24 hours before treatment. A46 peptides were added to the cells at a concentration of 5 or 20 μM 1 hour before stimulating with 1 μg/ml CpG. Supernatants were collected 24 hours after stimulation and assayed for MIP2 by ELISA. No peptides were added into the control wells (black bars). (A) peptides A461-A467 (SEQ ID NO. 17 to 23). (B) peptides A468-A4614 (SEQ ID NO. 24 to 30) (excluding A4612 SEQ ID NO. 28). Data is representative of at least two experiments each performed in triplicate and is expressed as mean±s.d;
Cytokine and chemokine production from cells or mouse serum was measured by ELISA using Duoset kits from R&D systems, according to the manufacturer's instructions.
These peptides were initially screened for effects on TLR-induced gene induction in vitro using the murine macrophage cell line RAW264.7. Unmethylated CpG dinucleotides of bacterial DNA sequences are detected by TLR9, which leads to production of pro-inflammatory cytokines and chemokines, including TNFα via a MyD88-dependent pathway (Latz et al, 2004). […] The effect of the peptides on two TLR9-induced cytokines, namely TNFα and MIP-2, was measured by ELISA. […]

KYSFKLILAEYRRRRRRRRR [Peptide A464]
inhibition of CpG-induced MIP-2 secretion: little or no effect

Source: patent publication US8722052B2, “Vaccinia virus protein A46 peptide and use thereof” (priority 2008, dated 2014)
